Results: patent US20170292963A1 (Johns Hopkins, published 2017)

Target: T1, Human NPTX2 (native protein in human CSF; antigen of the anti-human NPTX2 antibody) (human, UniProt P47972 17-431)
T1 construct: In CSF the protein is disulfide-linked with NPTX1 in heterocomplexes; also called Narp
T1 sequence: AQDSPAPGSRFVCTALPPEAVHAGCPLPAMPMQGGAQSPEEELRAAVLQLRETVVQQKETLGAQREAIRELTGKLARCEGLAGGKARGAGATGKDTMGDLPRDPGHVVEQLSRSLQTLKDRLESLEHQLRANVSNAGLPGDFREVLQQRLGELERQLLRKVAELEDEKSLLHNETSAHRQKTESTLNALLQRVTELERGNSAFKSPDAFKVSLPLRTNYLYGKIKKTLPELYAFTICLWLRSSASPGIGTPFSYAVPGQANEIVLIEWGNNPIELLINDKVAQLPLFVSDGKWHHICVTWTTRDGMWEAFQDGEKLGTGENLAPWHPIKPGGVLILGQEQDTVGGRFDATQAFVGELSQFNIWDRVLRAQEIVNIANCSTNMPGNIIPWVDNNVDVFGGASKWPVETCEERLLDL
Assay: co-immunoprecipitation from human CSF

binding result: binds
B1: Human NPTX1 (native protein in human CSF; antigen of the anti-human NPTX1 antibody) (other)
chain: QDFGPTRFICTSVPVDADMCAASVAAGGAEELRSSVLQLRETVLQQKETILSQKETIRELTAKLGRCESQSTLDPGAGEARAGGGRKQPGSGKNTMGDLSRTPAAETLSQLGQTLQSLKTRLENLEQYSRLNSSSQTNSLKDLLQSKIDELERQVLSRVNTLEEGKGGPRNDTEERVKIETALTSLHQRISELEKGQKDNRPGDKFQLTFPLRTNYMYAKVKKSLPEMYAFTVCMWLKSSATPGVGTPFSYAVPGQANELVLIEWGNNPMEILINDKVAKLPFVINDGKWHHICVTWTTRDGVWEAYQDGTQGGSGENLAPYHPIKPQGVLVLGQEQDTLGGGFDATQAFVGELAHFNIWDRKLTPGEVYNLATCSTKALSGNVIAWAESHIEIYGGATKWTFEACRQIN
